The numbers were not newly measured in article PMC12655228, which cites them from elsewhere.

For this data set, the target named is HER2 (Homo sapiens) (UniProt P04626).

The term Kd denotes the equilibrium constant for the complex coming apart. Regarding Trastuzumab, the Kd is 0.1 nM.
